The results in this text go back to paper PMC10110466 (Nature biotechnology, 2022).

Some results are limits rather than exact numbers.

For this test, the target named is T1, soluble human IL-2Rβγ complex (human, UniProt P31785 23-262; P14784 27-240, biotin).
T1 sequence (looked up) 1: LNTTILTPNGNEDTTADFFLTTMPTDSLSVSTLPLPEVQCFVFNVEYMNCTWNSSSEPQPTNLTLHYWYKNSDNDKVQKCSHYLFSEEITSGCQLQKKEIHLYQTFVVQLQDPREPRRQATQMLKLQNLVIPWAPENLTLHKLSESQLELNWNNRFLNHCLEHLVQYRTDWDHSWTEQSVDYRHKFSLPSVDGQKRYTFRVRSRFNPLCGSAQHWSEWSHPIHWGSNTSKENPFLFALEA
T1 sequence (looked up) 2: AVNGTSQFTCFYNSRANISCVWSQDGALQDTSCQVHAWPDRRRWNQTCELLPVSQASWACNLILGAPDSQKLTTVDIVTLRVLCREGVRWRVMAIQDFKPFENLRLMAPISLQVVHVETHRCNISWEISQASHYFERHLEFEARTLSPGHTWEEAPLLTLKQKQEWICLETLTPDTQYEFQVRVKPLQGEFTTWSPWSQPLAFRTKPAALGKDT
Put plainly: cell-based or functional assay.

B1: Neo2A (peptide)
peptide: PKKKIQLHAEHALYDALMILNIVKTNS
For B1, the “STAT5 phosphorylation in YT-1 human NK cells, EC50” value was above 40 µM.
